B1: A46 + B8 (protein)
VH 1: QVQLVESGGGVVQPGRSLRLSCAASGFTLSSYGMHWVRQAPGKGLEWVAVISYDGSNKYYVDSVKGRFTISRDNSKNTLYLQMNSLRAEDTAVYYCRWAYWELLPDYYYGMDVWGQGTTVTVSS
VL 1: QTVVTQEPSFSVSPGGTVTLTCGLSSGSVSTAYFPSWYQQTPGQAPRTLIYGTNTRSSGVPDRFSGSILGNKAALTITGAQADDESDYYCVLYMGRGIVVFGGGTKLTVL
VH 2: EVQLVESGGALIQPGGSLRLSCAASGIIVSANYMSWVRQAPGKGLEWVSVIYSGGSTFYADSVKGRFTISRDNSKNTLYLEMNSLRAEDTAVYYCARDAPILGVSDWGQGTLVTVSS
VL 2: EIVMTQSPAILSVSPGERATLSCRASQSVAINLAWYQQKPGQAPRLLIYAASSRATGIPGRFSGSGSETNFTLTISSLQSGDFAVYYCQQYITWPPSYTFGQGTKLEIK
B2: MX1027 (bispecific antibody)
chain 1: EIVMTQSPAILSVSPGERATLSCRASQSVAINLAWYQQKPGQAPRLLIYAASSRATGIPGRFSGSGSETNFTLTISSLQSGDFAVYYCQQYITWPPSYTFGQGTKLEIKGGSSGQTVVTQEPSFSVSPGGTVTLTCGLSSGSVSTAYFPSWYQQTPGQAPRTLIYGTNTRSSGVPDRFSGSILGNKAALTITGAQADDESDYYCVLYMGRGIVVFGGGTKLTVLGGGGSGGSGSGGGGSASGSGQVQLVESGGGVVQPGRSLRLSCAASGFTLSSYGMHWVRQAPGKGLEWVAVISYDGSNKYYVDSVKGRFTISRDNSKNTLYLQMNSLRAEDTAVYYCRWAYWELLPDYYYGMDVWGQGTTVTVSSGGSSGEVQLVESGGALIQPGGSLRLSCAASGIIVSANYMSWVRQAPGKGLEWVSVIYSGGSTFYADSVKGRFTISRDNSKNTLYLEMNSLRAEDTAVYYCARDAPILGVSDWGQGTLVTVSSASGGSGDKTHTCPPCPAPELLGGPSVFLFPPKPKDTLMISRTPEVTCVVVDVSHEDPEVKFNWYVDGVEVHNAKTKPREEQYNSYVVSVLTVLHQDWLNGKEYKCKVSNKALPAPIEKTISKAKGQPREPQVYTLPPCRDELTKNQVSLWCLVKGFYPSDIAVEWESNGQPENNYKTTPPVLDSDGSFFKKLTVDKSRWQQGNVFSCSVLHEALHSHYTQKSLSLSPG
chain 2: QTVVTQEPSFSVSPGGTVTLTCGLSSGSVSTAYFPSWYQQTPGQAPRTLIYGTNTRSSGVPDRFSGSILGNKAALTITGAQADDESDYYCVLYMGRGIVVFGGGTKLTVLGGSSGEIVMTQSPAILSVSPGERATLSCRASQSVAINLAWYQQKPGQAPRLLIYAASSRATGIPGRFSGSGSETNFTLTISSLQSGDFAVYYCQQYITWPPSYTFGQGTKLEIKGGGGSGGSGSGGGGSASGSGEVQLVESGGALIQPGGSLRLSCAASGIIVSANYMSWVRQAPGKGLEWVSVIYSGGSTFYADSVKGRFTISRDNSKNTLYLEMNSLRAEDTAVYYCARDAPILGVSDWGQGTLVTVSSGGSSGQVQLVESGGGVVQPGRSLRLSCAASGFTLSSYGMHWVRQAPGKGLEWVAVISYDGSNKYYVDSVKGRFTISRDNSKNTLYLQMNSLRAEDTAVYYCRWAYWELLPDYYYGMDVWGQGTTVTVSSASGGSGDKTHTCPPCPAPELLGGPSVFLFPPKPKDTLMISRTPEVTCVVVDVSHEDPEVKFNWYVDGVEVHNAKTKPREEQYNSYVVSVLTVLHQDWLNGKEYKCKVSNKALPAPIEKTISKAKGQPREPQVCTLPPSRDELTKNQVSLSCAVKGFYPSDIAVEWESNGQPENNYKTTPPVLDSDGSFFLVSKLTVDKSRWQQGNVFSCSVLHEALHSHYTQKSLSLSPG

What was measured:
Assay in all cases: cell-based or functional assay
[1] = molecular target: SARS-CoV-2 Omicron variant XBB spike protein (SARS-CoV-2)
[2] = molecular target: SARS-CoV-2 Omicron variant BQ.1.1 spike protein (SARS-CoV-2)
[3] = molecular target: SARS-CoV-2 Omicron variant BQ.1 spike protein (SARS-CoV-2)

Binder | IC50, pseudovirus neutralization [1] | IC80, pseudovirus neutralization [1] | IC50, pseudovirus neutralization [2] | IC80, pseudovirus neutralization [2] | IC50, pseudovirus neutralization [3] | IC80, pseudovirus neutralization [3]
B1 | 0.0186 µg/mL | 0.0481 µg/mL | 0.0145 µg/mL | 0.0273 µg/mL | 0.0186 µg/mL | 0.0493 µg/mL
B2 | 0.0129 µg/mL | 0.0207 µg/mL | 0.0135 µg/mL | 0.0232 µg/mL | 0.0216 µg/mL | 0.0649 µg/mL

Source: patent US20240109955A1
